Source: patent US20170211067, “ANTAGONISTIC CTLA-4 APTAMERS AND APPLICATIONS THEREOF IN ENHANCING IMMUNE ACTIVITY” (Academia Sinica, published 2017)

B1: CA82 (ssDNA)
DNA: TCCCTACGGCGCTAACCGATCGAAAATGTCCAGGGAGTTGTCTGTAGCCACCGTGCTACAAC
B2: CA21 (ssDNA)
DNA: TCCCTACGGCGCTAACGATGGTGAAAATGGGCCTAGGGTGGACGGTGCCACCGTGCTACAAC
B3: CA32 (ssDNA)
DNA: TCCCTACGGCGCTAACGTCCACACTCAGAAAACAGAATAGGGGGTAGCCACCGTGCTACAAC

How the values were obtained:
CTLA-4 [1] = biological target: T1, CTLA-4 (UniProt P16410 P16410:36-161); assay: CTLA-4 stably expressing 293 cells; no binding to non-transfected 293T by flow at 10 nM; settings: tags: expressed on CTLA-4-transfected 293T / stably expressing 293 cells; label: AlexaFluor 647 (flow cytometry)
T1 sequence (P16410 36-161, one chain of several): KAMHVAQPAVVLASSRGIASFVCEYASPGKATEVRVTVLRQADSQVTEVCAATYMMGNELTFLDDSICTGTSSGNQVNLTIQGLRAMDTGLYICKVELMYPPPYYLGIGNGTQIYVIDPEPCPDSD
Method: (§1) Panels A and B are FACS analysis diagrams showing the binding activities of selected aptamers to CTLA-4 expressed on wild-type 293T cells. […] The cells of panel A and panel B were incubated with 10 nM of AlexaFluor 647 labeled CA7, CA21, CA32 and CA82 aptamer as indicated. After washing away the unbounded aptamer, the fluorescent signals were measured by flow cytometry and the results of wild-type 293T cells are shown in panel A. The results for CTLA-4 expressing wild-type 293T cells are shown in panel B. Panels C, D, E and F show the CTLA-4 binding affinity of the aptamers CA7, CA21, CA32 and CA82, respectively. The four aptamers were selected and characterized for their binding affinity against CTLA-4 expressing cells. These aptamers were first synthesized and followed by 2-fold serial dilution which started from 250 nM. Six dosage points were analyzed after incubation of the selected pool with CTLA-4 stably expressed 293 cells.
(§2) Four aptamers (CA7, CA21, CA32 and CA82) isolated by the method described in Example 1 were selected by their higher structural stability. The binding specificity of these four aptamers were analyzed by flow cytometry. All four of these apatmers specifically recognized CTLA-4-expressing cells, except a relatively low non-specific binding signal in CA7 against wild type 293 cells (FIG. 2, panels A and B). […]

CTLA-4 [2] = biological target: T1, CTLA-4; assay: CTLA-4 stably expressing 293 cells, 2-fold dilutions from 250 nM; no binding to non-transfected 293T by flow at 10 nM; settings: tags: expressed on CTLA-4-transfected 293T / stably expressing 293 cells; label: AlexaFluor 647 (flow cytometry); possible G-quadruplex; Mfold secondary structure dG -10.6
Method: as §1, §2

CTLA-4 [3] = biological target: CTLA-4 (Mus musculus, UniProt P09793 P09793:36-161); assay: CA21 stated to cross-react with mouse CTLA-4, assay not described; settings: label: AlexaFluor 647 (flow cytometry)
CTLA-4 (Mus musculus, UniProt P09793 P09793:36-161), sequence (P09793 36-161, one chain of several): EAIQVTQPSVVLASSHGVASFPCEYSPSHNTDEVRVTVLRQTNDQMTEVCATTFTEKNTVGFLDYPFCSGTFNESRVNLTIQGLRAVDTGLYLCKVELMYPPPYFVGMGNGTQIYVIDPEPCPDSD

| Binder | Kd (CTLA-4 [1]) | Kd (CTLA-4 [2]) | binding result (CTLA-4 [3]) |
| --- | --- | --- | --- |
| B1 | 36.5 nM |  |  |
| B2 |  | 11.8 nM | binds |
| B3 | 61.8 nM |  |  |
